Assay results: paper PMC9482650, “Quantitative fragmentomics allow affinity mapping of interactomes” (Nature Communications, 2022)

T1: LNX2_3, Q8N448
T1 sequence (Q8N448 463-564, limits assumed, looked up): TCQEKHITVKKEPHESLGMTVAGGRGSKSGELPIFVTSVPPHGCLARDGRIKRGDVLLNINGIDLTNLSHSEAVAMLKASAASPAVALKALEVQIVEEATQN

T2: PARD3B_1, Q8TEW8
T2 sequence (Q8TEW8 196-299, limits assumed, looked up): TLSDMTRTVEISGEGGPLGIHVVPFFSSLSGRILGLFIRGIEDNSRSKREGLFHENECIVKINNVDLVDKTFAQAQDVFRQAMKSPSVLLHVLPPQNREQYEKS

T3: SNTG1, Q9NSN8
T3 sequence (Q9NSN8 52-150, limits assumed, looked up): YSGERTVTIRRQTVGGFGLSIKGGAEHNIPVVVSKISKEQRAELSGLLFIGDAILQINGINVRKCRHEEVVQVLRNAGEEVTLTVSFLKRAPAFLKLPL

T4: SNTA1, Q13424
T4 sequence (Q13424 82-180, limits assumed, looked up): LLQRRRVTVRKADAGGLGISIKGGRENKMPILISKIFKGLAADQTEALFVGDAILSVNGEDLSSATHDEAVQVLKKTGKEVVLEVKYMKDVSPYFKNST

T5: SYNJ2BP, P57105
T5 sequence (P57105 8-110, limits assumed, looked up): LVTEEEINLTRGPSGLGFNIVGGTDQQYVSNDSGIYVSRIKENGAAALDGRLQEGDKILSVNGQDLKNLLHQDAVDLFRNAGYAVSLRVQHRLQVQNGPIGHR

T6: MPP7, Q5T2T1
T6 sequence (Q5T2T1 134-230, limits assumed, looked up): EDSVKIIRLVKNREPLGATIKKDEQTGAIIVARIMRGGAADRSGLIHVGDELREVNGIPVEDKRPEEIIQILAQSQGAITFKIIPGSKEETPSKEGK

T7: PCLO, Q9Y6V0
T7 sequence (Q9Y6V0 4491-4600, limits assumed, looked up): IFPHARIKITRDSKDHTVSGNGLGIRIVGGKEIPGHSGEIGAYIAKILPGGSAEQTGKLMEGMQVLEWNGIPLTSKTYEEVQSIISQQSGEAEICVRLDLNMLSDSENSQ

T8: SNTG2, Q9NY99
T8 sequence (Q9NY99 68-166, limits assumed, looked up): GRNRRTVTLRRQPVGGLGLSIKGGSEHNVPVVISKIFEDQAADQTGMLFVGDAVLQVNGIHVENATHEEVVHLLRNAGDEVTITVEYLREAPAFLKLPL

T9: CARD11, Q9BXL7
T9 sequence (Q9BXL7 662-765, limits assumed, looked up): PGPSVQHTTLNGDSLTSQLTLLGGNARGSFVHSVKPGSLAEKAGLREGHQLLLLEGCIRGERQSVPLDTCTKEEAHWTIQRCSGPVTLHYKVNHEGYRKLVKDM

T10: HTRA4, P83105
T10 sequence (P83105 378-476, limits assumed, looked up): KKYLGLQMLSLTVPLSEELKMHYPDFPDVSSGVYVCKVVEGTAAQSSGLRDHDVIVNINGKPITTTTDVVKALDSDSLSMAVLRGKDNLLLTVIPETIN

T11: HTRA3, P83110
T11 sequence (P83110 354-453, limits assumed, looked up): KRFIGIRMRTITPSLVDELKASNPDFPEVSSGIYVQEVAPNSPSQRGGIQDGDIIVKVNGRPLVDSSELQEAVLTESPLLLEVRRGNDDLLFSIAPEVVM


Experiments:
Assay in all cases: holdup assay
Parameters in all cases: key: below the threshold = too weak to quantify, mostly under pKd 3.1 to 4
Details in all cases: plain residues with an end cap or a label only (N-terminal biotin on a linker: ado-ado)
LNX2_3, Q8N448 = target: T1, LNX2_3, Q8N448
PARD3B_1, Q8TEW8 = target: T2, PARD3B_1, Q8TEW8
SNTG1, Q9NSN8 = target: T3, SNTG1, Q9NSN8
TJP1_2, Q07157 = target: TJP1_2, Q07157
TJP1_2, Q07157, sequence (Q07157 181-274): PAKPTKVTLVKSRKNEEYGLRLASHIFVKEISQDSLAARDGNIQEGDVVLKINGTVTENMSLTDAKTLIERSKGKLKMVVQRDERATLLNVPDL

SNTA1, Q13424 = target: T4, SNTA1, Q13424
SYNJ2BP, P57105 = target: T5, SYNJ2BP, P57105
DLG2_3, Q15700 = target: DLG2_3, Q15700
MAGI2_5, Q86UL8 = target: MAGI2_5, Q86UL8
MAGI2_5, Q86UL8, sequence (Q86UL8 915-1017): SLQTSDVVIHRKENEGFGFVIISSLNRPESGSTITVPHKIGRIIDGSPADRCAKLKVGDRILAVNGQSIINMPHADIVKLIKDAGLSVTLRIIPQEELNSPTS

NHERF4_1, Q86UT5-2 = target: NHERF4_1, Q86UT5-2
NHERF4_1, Q86UT5-2, sequence (Q86UT5 other isoform, or with tags, fused parts or gaps): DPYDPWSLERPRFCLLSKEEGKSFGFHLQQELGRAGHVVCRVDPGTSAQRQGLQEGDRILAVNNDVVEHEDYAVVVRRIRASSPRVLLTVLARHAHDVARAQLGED

MPP7, Q5T2T1 = target: T6, MPP7, Q5T2T1
MAST1, Q9Y2H9 = target: MAST1, Q9Y2H9
MAST1, Q9Y2H9, sequence (Q9Y2H9 962-1065): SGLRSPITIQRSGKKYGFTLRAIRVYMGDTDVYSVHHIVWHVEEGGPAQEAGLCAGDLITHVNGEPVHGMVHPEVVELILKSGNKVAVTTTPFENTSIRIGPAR

SCRIB_2, Q14160 = target: SCRIB_2, Q14160
SCRIB_2, Q14160, sequence (Q14160 857-960): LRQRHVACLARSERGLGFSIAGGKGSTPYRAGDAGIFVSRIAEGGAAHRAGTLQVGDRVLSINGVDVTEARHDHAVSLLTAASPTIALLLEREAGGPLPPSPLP

Inadl_9, Q8NI35 = target: Inadl_9, Q8NI35
Inadl_9, Q8NI35, sequence (Q8NI35 1530-1615): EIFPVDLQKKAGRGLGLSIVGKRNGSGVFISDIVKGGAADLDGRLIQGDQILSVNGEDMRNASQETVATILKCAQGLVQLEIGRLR

AHNAK1, Q09666 = target: AHNAK1, Q09666
AHNAK1, Q09666, sequence (Q09666 4-100): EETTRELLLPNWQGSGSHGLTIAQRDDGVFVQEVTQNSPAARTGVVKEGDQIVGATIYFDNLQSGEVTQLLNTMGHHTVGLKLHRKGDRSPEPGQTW

NOS1, P29475 = target: NOS1, P29475
NOS1, P29475, sequence (P29475 9-101): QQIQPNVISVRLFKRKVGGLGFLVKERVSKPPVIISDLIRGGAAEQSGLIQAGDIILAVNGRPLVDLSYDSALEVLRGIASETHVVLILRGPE

IL16_1, Q14005 = target: IL16_1, Q14005
IL16_1, Q14005, sequence (Q14005 210-306): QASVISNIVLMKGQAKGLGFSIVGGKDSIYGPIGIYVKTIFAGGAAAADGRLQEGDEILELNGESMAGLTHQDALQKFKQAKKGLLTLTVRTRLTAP

PCLO, Q9Y6V0 = target: T7, PCLO, Q9Y6V0
Inadl_4, Q8NI35 = target: Inadl_4, Q8NI35
Inadl_4, Q8NI35, sequence (Q8NI35 547-651): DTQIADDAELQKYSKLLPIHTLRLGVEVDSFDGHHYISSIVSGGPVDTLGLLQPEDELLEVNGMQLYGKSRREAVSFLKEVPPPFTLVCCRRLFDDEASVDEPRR

Inadl_3, Q8NI35 = target: Inadl_3, Q8NI35
Inadl_3, Q8NI35, sequence (Q8NI35 359-469): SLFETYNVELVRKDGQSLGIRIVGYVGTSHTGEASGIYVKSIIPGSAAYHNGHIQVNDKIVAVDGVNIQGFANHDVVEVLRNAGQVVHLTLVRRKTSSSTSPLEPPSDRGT

SNTG2, Q9NY99 = target: T8, SNTG2, Q9NY99
PARD3_3, Q8TEW0 = target: PARD3_3, Q8TEW0
PARD3_3, Q8TEW0, sequence (Q8TEW0 582-685): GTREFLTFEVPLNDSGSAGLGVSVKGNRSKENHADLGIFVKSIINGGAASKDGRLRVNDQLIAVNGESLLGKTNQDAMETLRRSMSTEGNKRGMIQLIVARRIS

NHERF2_2, Q15599 = target: NHERF2_2, Q15599
NHERF2_2, Q15599, sequence (Q15599 142-238): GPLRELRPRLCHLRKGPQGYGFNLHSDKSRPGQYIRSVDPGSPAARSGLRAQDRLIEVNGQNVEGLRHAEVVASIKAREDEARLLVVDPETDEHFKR

CARD11, Q9BXL7 = target: T9, CARD11, Q9BXL7
HTRA4, P83105 = target: T10, HTRA4, P83105
ARHGEF12, Q9NZN5-2 = target: ARHGEF12, Q9NZN5-2
ARHGEF12, Q9NZN5-2, sequence (Q9NZN5 other isoform, or with tags, fused parts or gaps): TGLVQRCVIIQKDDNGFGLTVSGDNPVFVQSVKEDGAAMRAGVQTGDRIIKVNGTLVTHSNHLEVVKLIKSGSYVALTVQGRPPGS

HTRA3, P83110 = target: T11, HTRA3, P83110

Binder | pKd (LNX2_3, Q8N448) | pKd (PARD3B_1, Q8TEW8) | pKd (SNTG1, Q9NSN8) | pKd (TJP1_2, Q07157) | pKd (SNTA1, Q13424) | pKd (SYNJ2BP, P57105) | pKd (DLG2_3, Q15700) | pKd (MAGI2_5, Q86UL8) | pKd (NHERF4_1, Q86UT5-2) | pKd (MPP7, Q5T2T1) | pKd (MAST1, Q9Y2H9) | pKd (SCRIB_2, Q14160) | pKd (Inadl_9, Q8NI35) | pKd (AHNAK1, Q09666) | pKd (NOS1, P29475) | pKd (IL16_1, Q14005) | pKd (PCLO, Q9Y6V0) | pKd (Inadl_4, Q8NI35) | pKd (Inadl_3, Q8NI35) | pKd (SNTG2, Q9NY99) | other results
THHRKIHTRV [ZNF599, Q96NL3] | 3.51 | below the threshold | 3.61 | 3.62 | 4.3 | 4.32 | 4.41 | 3.75 | 3.72 | below the threshold | 4.48 | 4.15 | 3.58 | below the threshold | 4.02 | 3.48 | below the threshold | 3.57 | below the threshold | 4.13 | pKd (PARD3_3, Q8TEW0): below the threshold; pKd (NHERF2_2, Q15599): below the threshold; pKd (CARD11, Q9BXL7): below the threshold; pKd (HTRA4, P83105): below the threshold; pKd (ARHGEF12, Q9NZN5-2): 4.3; pKd (HTRA3, P83110): below the threshold
TFSRRPKTRV [CD226, Q15762] | 3.61 | below the threshold | below the threshold | 3.5 | 3.79 | below the threshold | 3.88 | below the threshold | below the threshold | below the threshold | 4.24 | 3.54 | below the threshold | below the threshold | 4.17 | 3.57 | below the threshold | below the threshold | below the threshold | 3.55 | pKd (PARD3_3, Q8TEW0): below the threshold; pKd (NHERF2_2, Q15599): below the threshold; pKd (CARD11, Q9BXL7): below the threshold; pKd (HTRA4, P83105): 4.01; pKd (ARHGEF12, Q9NZN5-2): 3.93; pKd (HTRA3, P83110): below the threshold
AKADAQESRL [PLCB2, Q00722] | below the threshold | 4.47 | below the threshold | below the threshold | 4.2 | 3.97 | below the threshold | 3.59 | 3.84 | below the threshold | 4.85 | below the threshold | below the threshold | below the threshold | below the threshold | 3.94 | below the threshold | below the threshold | below the threshold | 4.81 | pKd (PARD3_3, Q8TEW0): 3.48; pKd (NHERF2_2, Q15599): 5.19; pKd (CARD11, Q9BXL7): below the threshold; pKd (HTRA4, P83105): 3.85; pKd (ARHGEF12, Q9NZN5-2): 3.93; pKd (HTRA3, P83110): below the threshold
VISSDDLTEL [CAPN6, Q9Y6Q1] | below the threshold | below the threshold | below the threshold | below the threshold | below the threshold | below the threshold | 3.53 | 3.53 | 3.94 | below the threshold | 4.99 | below the threshold | below the threshold | below the threshold | below the threshold | below the threshold | below the threshold | below the threshold | below the threshold | below the threshold | pKd (PARD3_3, Q8TEW0): 3.84; pKd (NHERF2_2, Q15599): 4.28; pKd (CARD11, Q9BXL7): below the threshold; pKd (HTRA4, P83105): 3.92; pKd (ARHGEF12, Q9NZN5-2): 4.91; pKd (HTRA3, P83110): below the threshold
